In patent publication US20250262210A1 (TRUSTEES OF COLUMBIA UNIVERSITY IN THE CITY OF NEW YORK, published 2025):

How the values were obtained:
[1] = molecular target: T1, SBNO2 (human, UniProt Q9Y2G9 1-1366, limits assumed); assay: IP/MS, LZTR1 R810W-FLAG, U87
T1 sequence (looked up): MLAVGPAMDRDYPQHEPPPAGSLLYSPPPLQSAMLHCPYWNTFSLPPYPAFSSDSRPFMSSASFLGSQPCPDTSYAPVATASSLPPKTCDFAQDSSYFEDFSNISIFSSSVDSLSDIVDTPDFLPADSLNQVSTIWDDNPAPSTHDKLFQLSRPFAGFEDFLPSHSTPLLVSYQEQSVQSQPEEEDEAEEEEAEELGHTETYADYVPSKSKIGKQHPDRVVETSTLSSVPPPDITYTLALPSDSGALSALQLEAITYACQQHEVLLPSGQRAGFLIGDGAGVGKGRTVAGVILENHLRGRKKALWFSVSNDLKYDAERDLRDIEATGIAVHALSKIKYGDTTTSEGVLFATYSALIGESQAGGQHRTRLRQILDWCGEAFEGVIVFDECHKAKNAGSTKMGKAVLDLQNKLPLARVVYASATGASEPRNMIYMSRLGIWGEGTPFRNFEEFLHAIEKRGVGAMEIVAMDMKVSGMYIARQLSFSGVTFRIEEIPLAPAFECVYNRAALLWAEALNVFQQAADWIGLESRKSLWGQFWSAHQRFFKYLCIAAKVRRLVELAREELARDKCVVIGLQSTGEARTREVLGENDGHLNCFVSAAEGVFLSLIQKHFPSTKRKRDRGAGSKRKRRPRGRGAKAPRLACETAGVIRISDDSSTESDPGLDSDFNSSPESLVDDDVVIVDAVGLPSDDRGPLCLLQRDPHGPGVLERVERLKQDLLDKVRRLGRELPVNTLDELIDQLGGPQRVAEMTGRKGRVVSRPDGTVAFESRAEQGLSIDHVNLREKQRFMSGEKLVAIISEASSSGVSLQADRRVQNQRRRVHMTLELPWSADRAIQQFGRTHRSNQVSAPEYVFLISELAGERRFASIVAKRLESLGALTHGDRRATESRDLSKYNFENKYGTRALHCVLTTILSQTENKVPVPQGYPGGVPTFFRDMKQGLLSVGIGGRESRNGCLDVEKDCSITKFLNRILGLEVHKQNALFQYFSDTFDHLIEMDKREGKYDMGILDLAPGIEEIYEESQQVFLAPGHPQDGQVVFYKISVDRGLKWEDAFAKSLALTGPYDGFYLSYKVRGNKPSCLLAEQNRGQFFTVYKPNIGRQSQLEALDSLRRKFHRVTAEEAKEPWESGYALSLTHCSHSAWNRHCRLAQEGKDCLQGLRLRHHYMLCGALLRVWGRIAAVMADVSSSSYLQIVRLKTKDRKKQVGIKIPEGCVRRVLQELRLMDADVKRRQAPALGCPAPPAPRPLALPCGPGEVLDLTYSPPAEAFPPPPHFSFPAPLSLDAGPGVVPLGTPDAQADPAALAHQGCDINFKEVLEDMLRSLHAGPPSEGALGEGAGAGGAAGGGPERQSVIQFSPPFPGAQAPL
Outline: (§1)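 Read-out: spectral counts from LC-MS/MS (Orbitrap Fusion) after MaxQuant identification. Variable modifications were Met oxidation, protein N-terminal acetylation and N/Q deamidation.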

[2] = molecular target: T2, SNX14 (human, UniProt Q9Y5W7 1-946, limits assumed); assay: IP/MS, LZTR1 R810W-FLAG, U87
T2 sequence (looked up): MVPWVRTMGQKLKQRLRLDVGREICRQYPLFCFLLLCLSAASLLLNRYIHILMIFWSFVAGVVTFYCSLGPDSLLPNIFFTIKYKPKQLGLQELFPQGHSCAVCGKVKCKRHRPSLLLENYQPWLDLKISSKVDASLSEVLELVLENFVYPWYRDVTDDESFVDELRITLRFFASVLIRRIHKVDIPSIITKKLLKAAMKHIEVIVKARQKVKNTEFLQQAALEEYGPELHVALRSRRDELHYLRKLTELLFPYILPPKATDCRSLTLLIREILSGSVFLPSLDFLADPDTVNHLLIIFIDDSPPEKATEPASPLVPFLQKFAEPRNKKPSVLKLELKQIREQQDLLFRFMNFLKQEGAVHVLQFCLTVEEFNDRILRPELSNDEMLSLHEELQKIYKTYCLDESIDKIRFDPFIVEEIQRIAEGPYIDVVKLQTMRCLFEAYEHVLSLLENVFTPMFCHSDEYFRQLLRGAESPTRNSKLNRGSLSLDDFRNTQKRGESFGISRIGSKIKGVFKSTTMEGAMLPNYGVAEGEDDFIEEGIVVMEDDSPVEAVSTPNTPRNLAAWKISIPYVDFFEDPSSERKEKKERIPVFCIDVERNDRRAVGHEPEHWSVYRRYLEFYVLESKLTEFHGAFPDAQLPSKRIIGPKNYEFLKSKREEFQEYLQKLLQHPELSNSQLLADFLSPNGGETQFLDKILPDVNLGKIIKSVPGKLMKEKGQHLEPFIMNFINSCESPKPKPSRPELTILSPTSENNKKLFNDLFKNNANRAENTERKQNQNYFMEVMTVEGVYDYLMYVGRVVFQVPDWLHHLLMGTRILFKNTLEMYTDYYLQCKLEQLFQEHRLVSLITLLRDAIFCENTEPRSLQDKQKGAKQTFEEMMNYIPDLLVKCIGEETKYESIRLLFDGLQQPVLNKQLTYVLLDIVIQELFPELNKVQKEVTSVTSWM
Outline: as §1

B1: LZTR1 R810W-FLAG (other, human, UniProt Q8N653 1-840, looked up)
chain: MAGPGSTGGQIGAAALAGGARSKVAPSVDFDHSCSDSVEYLTLNFGPFETVHRWRRLPPCDEFVGARRSKHTVVAYKDAIYVFGGDNGKTMLNDLLRFDVKDCSWCRAFTTGTPPAPRYHHSAVVYGSSMFVFGGYTGDIYSNSNLKNKNDLFEYKFATGQWTEWKIEGRLPVARSAHGATVYSDKLWIFAGYDGNARLNDMWTIGLQDRELTCWEEVAQSGEIPPSCCNFPVAVCRDKMFVFSGQSGAKITNNLFQFEFKDKTWTRIPTEHLLRGSPPPPQRRYGHTMVAFDRHLYVFGGAADNTLPNELHCYDVDFQTWEVVQPSSDSEVGGAEVPERACASEEVPTLTYEERVGFKKSRDVFGLDFGTTSAKQPTQPASELPSGRLFHAAAVISDAMYIFGGTVDNNIRSGEMYRFQFSCYPKCTLHEDYGRLWESRQFCDVEFVLGEKEECVQGHVAIVTARSRWLRRKITQARERLAQKLEQEAAPVPREAPGVAAGGARPPLLHVAIREAEARPFEVLMQFLYTDKIKYPRKGHVEDVLLIMDVYKLALSFQLCRLEQLCRQYIEASVDLQNVLVVCESAARLQLSQLKEHCLNFVVKESHFNQVIMMKEFERLSSPLIVEIVRRKQQPPPRTPLDQPVDIGTSLIQDMKAYLEGAGAEFCDITLLLDGHPRPAHKAILAARSSYFEAMFRSFMPEDGQVNISIGEMVPSRQAFESMLRYIYYGEVNMPPEDSLYLFAAPYYYGFYNNRLQAYCKQNLEMNVTVQNVLQILEAADKTQALDMKRHCLHIIVHQFTKVSKLPTLWSLSQQLLLDIIDSLASHISDKQCAELGADI
notes: Stably expressed in U87 cells by lentivirus; also called LZTR1-FLAG-R810W; LZTR1 RW; not shown: FLAG tag
Which results are given for B1?
binding result [1]: binds; binding result [2]: binds
